This is an account of results in patent CN1737011A (SHANGHAI MEI EN BIO TECH CO LT, dated 2006).

The target of the assay is HLA-DR10抗原 (on live Raji cells, Burkitt's lymphoma, ATCC CCL-86) (human). In words: radioimmunoassay with 131I-labelled antibody (5-110 ng/ml) on 10^6 live Raji cells, Scatchard plot, Ka = -(slope/n), n = 2.

B1: 抗HLA-DR10的特异性嵌合单克隆抗体 (131I标记, 131I-HLA-DR10) (antibody, V domains shown)
VH: QVQLKESGPGLVAPSQSLSITCTISGFSLTSYGVHWVRQPPGKGLEWLVVIWSDGSTTYNSALKSRLSISKDNSKSQVFLKMNSLQTDDTAIYYCASHYGSTLAFASWGHGTLVTVSA
VL: DIQMTQSPASLSASVGETVTIICRASVNIYSYLAWYQQKQGKSPQLLVYNAKILAEGVPSRFSGSGSGTQFSLKINSLQPEDFGSYYCQHHYGTFTFGSGTKLEIK
modifications: 131I label by the chloramine-T method; labelled residues not stated
notes: Mouse/human chimeric IgG1 kappa made in NS0-clym cells (CCTCC C200405); also called HLA-DR10单抗; chLym抗体; not shown: human immunoglobulin gamma-1 heavy chain constant region (from plasmid pSK-γ1); human immunoglobulin kappa light chain constant region (from plasmid pSK-κ)
In the case of B1, the Ka was 3.36e+08 M⁻¹.
